Results taken from patent US20220275067A1 (PROTHENA BIOSCIENCES, published 2022).

Biological target: T1, recombinant human 4R0N tau (human, UniProt P10636 2-758)
T1 construct: also called recombinant 4R0N human tau; P10636-6
Test: SPR Biacore T200; antibody captured by anti-human Fc; tau as analyte; global 1:1 fit
Experimental: Target binding analysis was performed using a Biacore T200 to compare the binding affinity of humanized 9F5 variants to recombinant human 4R0N tau. Anti-Human Fc antibody was immobilized on sensor chip CM3 via amine coupling, and humanized 9F5 variants were captured to equivalent levels. Various concentrations of recombinant 4R0N human tau (ranging from 0.02 nM to 12.5 nM) were passed over the captured ligand at 50 μL/min in running buffer (HBS+0.05% P-20, 1 mg/mL BSA) for 180 seconds association/420 seconds dissociation as a single cycle. Data was blank subtracted to both an irrelevant sensor not containing antibody and 0 nM analyte concentration. Analysis was performed using a global 1:1 fit with Biacore Evaluation software.

T1 sequence (P10636 other isoform, or with tags, fused parts or gaps limits assumed): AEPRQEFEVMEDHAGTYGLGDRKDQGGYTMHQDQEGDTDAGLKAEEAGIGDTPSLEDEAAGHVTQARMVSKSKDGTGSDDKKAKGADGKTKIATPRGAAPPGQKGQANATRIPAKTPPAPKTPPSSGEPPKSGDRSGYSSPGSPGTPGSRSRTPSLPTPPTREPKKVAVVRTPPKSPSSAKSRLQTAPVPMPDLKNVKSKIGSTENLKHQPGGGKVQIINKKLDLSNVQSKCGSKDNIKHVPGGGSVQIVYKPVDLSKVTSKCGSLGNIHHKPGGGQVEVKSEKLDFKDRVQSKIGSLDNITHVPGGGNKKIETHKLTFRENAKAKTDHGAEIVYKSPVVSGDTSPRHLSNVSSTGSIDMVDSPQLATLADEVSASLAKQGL

B1: hu9F5VHv9/hu9F5VLv8_DIM19 (antibody, V domains shown)
VH: EVQLVQSGAEVKKPGATVKISCKASGFNIKDDYMNWVQQRPGKGLEWIGWIDPENGDTEYASKFQGRATMTADTSTNTAYMELSSLRSEDTAVYYCTTSNGWGQGTLVTVSS
VL: DIQMTQSPFSLPVTPGESASISCRSSKSLSHSNGITYLYWYIQKPGQSPQLLIYQISNRASGVPNRFSSSGSGTDFTLKISRVEAEDVGVYYCAQNIELPLTFGQGTKLEIK
  Kd: 0.597 nM
  koff: 0.00215 s⁻¹
  kon: 3.61e+06 M⁻¹ s⁻¹

B2: hu9F5VHv9/hu9F5VLv8_DIM24 (antibody, V domains shown)
VH: EVQLVQSGAEVKKPGATVKISCKASGFNIKDDYMNWVQQRPGKGLEWIGWIDPENGDTEYASKFQGRATMTADTSTNTAYMELSSLRSEDTAVYYCTTSNGWGQGTLVTVSS
VL: DIQMTQSPFSLPVTPGESASISCRSSKSLGHSNGITYLYWYIQKPGQSPQLLIYQESNRASGVPNRFSSSGSGTDFTLKISRVEAEDVGVYYCAQNIELPLTFGQGTKLEIK
  Kd: 0.454 nM
  koff: 0.000993 s⁻¹
  kon: 2.19e+06 M⁻¹ s⁻¹

B3: hu9F5VHv9/hu9F5VLv8_DIM21 (antibody, V domains shown)
VH: EVQLVQSGAEVKKPGATVKISCKASGFNIKDDYMNWVQQRPGKGLEWIGWIDPENGDTEYASKFQGRATMTADTSTNTAYMELSSLRSEDTAVYYCTTSNGWGQGTLVTVSS
VL: DIQMTQSPFSLPVTPGESASISCRSSKSLSHSNGITYLYWYQQKPGQSPQLLIYQISNGASGVPNRFSSSGSGTDFTLKISRVEAEDVGVYYCAQNLELPLTFGQGTKLEIK
  Kd: 858 nM
  koff: 1.12 s⁻¹
  kon: 1.31e+06 M⁻¹ s⁻¹

B4: hu9F5VHv10/hu9F5VLv9_DIM1 (antibody, V domains shown)
VH: EVQLVQSGAEVKKPGATVKISCKASGFNIKDDYMNWVKQRPEKGLEWIGWIDPENGDTEYASKFQGRATMTADTSTNTAYMELSSLRSEDTAVYYCTTSNGWGQGTLVTVSS
VL: DIQMTQSPFSLPVTPGESASISCRSSKSLSHSNGITYLYWYQQKPGQSPQLLIYQGSNGASGVPDRFSSSGSGTDFTLKISRVEAEDVGVYYCAQNIELPLTFGQGTKLEIK
  Kd: 1.47 nM
  koff: 0.00395 s⁻¹
  kon: 2.69e+06 M⁻¹ s⁻¹

B5: hu9F5VHv9/hu9F5VLv8_DIM28 (antibody, V domains shown)
VH: EVQLVQSGAEVKKPGATVKISCKASGFNIKDDYMNWVQQRPGKGLEWIGWIDPENGDTEYASKFQGRATMTADTSTNTAYMELSSLRSEDTAVYYCTTSNGWGQGTLVTVSS
VL: DIQMTQSPFSLPVTPGESASISCRSSKSLSHSNGITYLYWYLQKPGQSPQLLIYQGSNRASGVPNRFSSSGSGTDFTLKISRVEAEDVGVYYCAQNIELPLTFGQGTKLEIK
  Kd: 0.0692 nM
  koff: 0.000217 s⁻¹
  kon: 3.13e+06 M⁻¹ s⁻¹

B6: hu9F5VHv9/hu9F5VLv8_DIM22 (antibody, V domains shown)
VH: EVQLVQSGAEVKKPGATVKISCKASGFNIKDDYMNWVQQRPGKGLEWIGWIDPENGDTEYASKFQGRATMTADTSTNTAYMELSSLRSEDTAVYYCTTSNGWGQGTLVTVSS
VL: DIQMTQSPFSLPVTPGESASISCRSSKSLSHSNGITYLYWYQQKPGQSPQLLIYQESNRASGVPNRFSSSGSGTDFTLKISRVEAEDVGVYYCAQNIELPLTFGQGTKLEIK
  Kd: 0.39 nM
  koff: 0.000878 s⁻¹
  kon: 2.25e+06 M⁻¹ s⁻¹

B7: hu9F5VHv9/hu9F5VLv8_DIM30 (antibody, V domains shown)
VH: EVQLVQSGAEVKKPGATVKISCKASGFNIKDDYMNWVQQRPGKGLEWIGWIDPENGDTEYASKFQGRATMTADTSTNTAYMELSSLRSEDTAVYYCTTSNGWGQGTLVTVSS
VL: DIQMTQSPFSLPVTPGESASISCRSSKSLSHSNGITYLYWYQQKPGQSPQLLIYQGSNLASGVPNRFSSSGSGTDFTLKISRVEAEDVGVYYCAQNIELPLTFGQGTKLEIK
  Kd: 0.438 nM
  koff: 0.000447 s⁻¹
  kon: 1.02e+06 M⁻¹ s⁻¹

B8: hu9F5VHv10/hu9F5VLv9_DIM8 (antibody, V domains shown)
VH: EVQLVQSGAEVKKPGATVKISCKASGFNIKDDYMNWVKQRPEKGLEWIGWIDPENGDTEYASKFQGRATMTADTSTNTAYMELSSLRSEDTAVYYCTTSNGWGQGTLVTVSS
VL: DIQMTQSPFSLPVTPGESASISCRSSKSLGHSNGITYLYWYQQKPGQSPQLLIYQKSNRASGVPDRFSSSGSGTDFTLKISRVEAEDVGVYYCAQNIELPLTFGQGTKLEIK
  Kd: 0.859 nM
  koff: 0.00232 s⁻¹
  kon: 2.71e+06 M⁻¹ s⁻¹

B9: hu9F5VHv9/hu9F5VLv8_DIM26 (antibody, V domains shown)
VH: EVQLVQSGAEVKKPGATVKISCKASGFNIKDDYMNWVQQRPGKGLEWIGWIDPENGDTEYASKFQGRATMTADTSTNTAYMELSSLRSEDTAVYYCTTSNGWGQGTLVTVSS
VL: DIQMTQSPFSLPVTPGESASISCRSSKSLIHSNGITYLYWYIQKPGQSPQLLIYQESNRASGVPNRFSSSGSGTDFTLKISRVEAEDVGVYYCAQNLELPLTFGQGTKLEIK
  Kd: 1.04 nM
  koff: 0.004 s⁻¹
  kon: 3.84e+06 M⁻¹ s⁻¹

B10: hu9F5VHv9/hu9F5VLv8_DIM25 (antibody, V domains shown)
VH: EVQLVQSGAEVKKPGATVKISCKASGFNIKDDYMNWVQQRPGKGLEWIGWIDPENGDTEYASKFQGRATMTADTSTNTAYMELSSLRSEDTAVYYCTTSNGWGQGTLVTVSS
VL: DIQMTQSPFSLPVTPGESASISCRSSKSLGHSNGITYLYWYIQKPGQSPQLLIYQESNRASGVPNRFSSSGSGTDFTLKISRVEAEDVGVYYCAQNGELPLTFGQGTKLEIK
  Kd: 3.15 nM
  koff: 0.0409 s⁻¹
  kon: 1.3e+07 M⁻¹ s⁻¹

B11: hu9F5VHv10/hu9F5VLv9_DIM10 (antibody, V domains shown)
VH: EVQLVQSGAEVKKPGATVKISCKASGFNIKDDYMNWVKQRPEKGLEWIGWIDPENGDTEYASKFQGRATMTADTSTNTAYMELSSLRSEDTAVYYCTTSNGWGQGTLVTVSS
VL: DIQMTQSPFSLPVTPGESASISCRSSKSLSHSNGITYLYWYQQKPGQSPQLLIYQKSNGASGVPDRFSSSGSGTDFTLKISRVEAEDVGVYYCAQNIELPLTFGQGTKLEIK
  Kd: 3.77 nM
  koff: 0.026 s⁻¹
  kon: 6.89e+06 M⁻¹ s⁻¹

B12: hu9F5VHv9/hu9F5VLv8_DIM23 (antibody, V domains shown)
VH: EVQLVQSGAEVKKPGATVKISCKASGFNIKDDYMNWVQQRPGKGLEWIGWIDPENGDTEYASKFQGRATMTADTSTNTAYMELSSLRSEDTAVYYCTTSNGWGQGTLVTVSS
VL: DIQMTQSPFSLPVTPGESASISCRSSKSLGHSNGITYLYWYQQKPGQSPQLLIYQESNGASGVPNRFSSSGSGTDFTLKISRVEAEDVGVYYCAQNIELPLTFGQGTKLEIK
  Kd: 1.24 nM
  koff: 0.0832 s⁻¹
  kon: 6.69e+07 M⁻¹ s⁻¹

B13: hu9F5VHv10/hu9F5VLv9_DIM5 (antibody, V domains shown)
VH: EVQLVQSGAEVKKPGATVKISCKASGFNIKDDYMNWVKQRPEKGLEWIGWIDPENGDTEYASKFQGRATMTADTSTNTAYMELSSLRSEDTAVYYCTTSNGWGQGTLVTVSS
VL: DIQMTQSPFSLPVTPGESASISCRSSKSLGHSNGITYLYWYQQKPGQSPQLLIYQGSNRASGVPDRFSSSGSGTDFTLKISRVEAEDVGVYYCAQNIELPLTFGQGTKLEIK
  Kd: 0.542 nM
  koff: 0.000919 s⁻¹
  kon: 1.7e+06 M⁻¹ s⁻¹

B14: hu9F5VHv10/hu9F5VLv9_DIM11 (antibody, V domains shown)
VH: EVQLVQSGAEVKKPGATVKISCKASGFNIKDDYMNWVKQRPEKGLEWIGWIDPENGDTEYASKFQGRATMTADTSTNTAYMELSSLRSEDTAVYYCTTSNGWGQGTLVTVSS
VL: DIQMTQSPFSLPVTPGESASISCRSSKSLGHSNGITYLYWYGQKPGQSPQLLIYQGSNRASGVPDRFSSSGSGTDFTLKISRVEAEDVGVYYCAQNIELPLTFGQGTKLEIK
notes: also called H10L9-DIM11; H10L9DIM11
  Kd: 0.163 nM
  koff: 0.000287 s⁻¹
  kon: 1.76e+06 M⁻¹ s⁻¹

B15: hu9F5VHv9/hu9F5VLv8_DIM27 (antibody, V domains shown)
VH: EVQLVQSGAEVKKPGATVKISCKASGFNIKDDYMNWVQQRPGKGLEWIGWIDPENGDTEYASKFQGRATMTADTSTNTAYMELSSLRSEDTAVYYCTTSNGWGQGTLVTVSS
VL: DIQMTQSPFSLPVTPGESASISCRSSKSLLHSNGITYLYWYQQKPGQSPQLLIYQGSNRASGVPNRFSSSGSGTDFTLKISRVEAEDVGVYYCAQNIELPLTFGQGTKLEIK
  Kd: 0.16 nM
  koff: 0.000385 s⁻¹
  kon: 2.41e+06 M⁻¹ s⁻¹

B16: hu9F5VHv9/hu9F5VLv8_DIM29 (antibody, V domains shown)
VH: EVQLVQSGAEVKKPGATVKISCKASGFNIKDDYMNWVQQRPGKGLEWIGWIDPENGDTEYASKFQGRATMTADTSTNTAYMELSSLRSEDTAVYYCTTSNGWGQGTLVTVSS
VL: DIQMTQSPFSLPVTPGESASISCRSSKSLSHSNGITYLYWYQQKPGQSPQLLIYQMSNRASGVPNRFSSSGSGTDFTLKISRVEAEDVGVYYCAQNIELPLTFGQGTKLEIK
  Kd: 0.27 nM
  koff: 0.000534 s⁻¹
  kon: 1.98e+06 M⁻¹ s⁻¹

B17: hu9F5VHv9/hu9F5VLv8_DIM20 (antibody, V domains shown)
VH: EVQLVQSGAEVKKPGATVKISCKASGFNIKDDYMNWVQQRPGKGLEWIGWIDPENGDTEYASKFQGRATMTADTSTNTAYMELSSLRSEDTAVYYCTTSNGWGQGTLVTVSS
VL: DIQMTQSPFSLPVTPGESASISCRSSKSLSHSNGITYLYWYQQKPGQSPQLLIYQISNGASGVPNRFSSSGSGTDFTLKISRVEAEDVGVYYCAQNIELPLTFGQGTKLEIK
  Kd: 12.3 nM
  koff: 0.0694 s⁻¹
  kon: 5.64e+06 M⁻¹ s⁻¹

B18: hu9F5VHv10/hu9F5VLv9_DIM2 (antibody, V domains shown)
VH: EVQLVQSGAEVKKPGATVKISCKASGFNIKDDYMNWVKQRPEKGLEWIGWIDPENGDTEYASKFQGRATMTADTSTNTAYMELSSLRSEDTAVYYCTTSNGWGQGTLVTVSS
VL: DIQMTQSPFSLPVTPGESASISCRSSKSLSHSNGITYLYWYQQKPGQSPQLLIYQGSNRASGVPDRFSSSGSGTDFTLKISRVEAEDVGVYYCAQNIELPLTFGQGTKLEIK
  Kd: 0.679 nM
  koff: 0.00184 s⁻¹
  kon: 2.72e+06 M⁻¹ s⁻¹

B19: hu9F5VHv10/hu9F5VLv9_DIM4 (antibody, V domains shown)
VH: EVQLVQSGAEVKKPGATVKISCKASGFNIKDDYMNWVKQRPEKGLEWIGWIDPENGDTEYASKFQGRATMTADTSTNTAYMELSSLRSEDTAVYYCTTSNGWGQGTLVTVSS
VL: DIQMTQSPFSLPVTPGESASISCRSSKSLSHSNGITYLYWYQQKPGQSPQLLIYQGSNRASGVPDRFSSSGSGTDFTLKISRVEAEDVGVYYCAQNGELPLTFGQGTKLEIK
  Kd: 1.74 nM
  koff: 0.00439 s⁻¹
  kon: 2.53e+06 M⁻¹ s⁻¹
